This note sets out measurements from US20260217863A1, “ANTIBODY OR PEPTIDE BINDING SPECIFICALLY TO RNASE A, IMMUNOASSAY DEVICE AND METHOD FOR DETECTING RNASE A, AND METHOD FOR COLLECTING RNASE A” (UIF (University Industry Foundation), Yonsei University, priority 2022, published 2026).

Test [1] has as its target Ribonuclease A (Type II-A) from bovine pancreas (bovine) (UniProt P61823). Kind of test: flow cytometry (FL1-H) of E. coli displaying the Fv variant, incubated with fluorescence-labeled RNase-A. Background: Flow cytometry measures light scatter and fluorescence of single cells or particles in a stream.
The target is the same in test [2]. Kind of test: flow cytometry, E. coli surface-displayed Fv, titration of fluorescently labeled RNase A, fit with an adsorption model.

The Kd is the free concentration of one partner at which half of the binding sites on the other are occupied at equilibrium, for simple one-to-one binding. Read a high Kd as weaker binding.

Chain of Ribonuclease A (Type II-A) from bovine pancreas (bovine) (P61823 27-150): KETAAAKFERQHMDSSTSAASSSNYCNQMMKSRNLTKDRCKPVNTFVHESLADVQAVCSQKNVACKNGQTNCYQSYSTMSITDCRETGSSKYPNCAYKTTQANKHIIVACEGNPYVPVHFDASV

B1: Fv variant clone 5, surface-expressed on the outer membrane of E. coli (protein, part only; not given: AIDA-1 display anchor and linker, not shown: another chain or arm of the molecule; large carriers; small tags and cut ends)
VH: EVQLVESAAEVRRPGASVKITCKASGYSFSTYGIQWMRQAPGQRPEWLGWIHAGTGGTKYSRKFQGRITITRDTSANTVYLDLNSLTSEDTAVYYCARCGPDSDVMTDFWGQGTTVTVSS
For the molecule B1, in test [1], the fluorescence intensity, at 3.125 µM fluorescence-labeled RNase-A is 31.5 a.u; the fluorescence intensity, at 6.25 µM fluorescence-labeled RNase-A turned out to be 44.7 a.u; the fluorescence intensity, at 12.5 µM fluorescence-labeled RNase-A stood at 72.3 a.u; the fluorescence intensity, at 25 µM fluorescence-labeled RNase-A is 108 a.u. In test [1], the fluorescence intensity, at 50 µM fluorescence-labeled RNase-A is 167 a.u and the fluorescence intensity, at 100 µM fluorescence-labeled RNase-A worked out at 196 a.u. For the same molecule, the Kd in test [2] is 23.8 µM.

B2: Fv variant clone 23, surface-expressed on the outer membrane of E. coli (protein, part only; not given: AIDA-1 display anchor and linker, not shown: another chain or arm of the molecule; large carriers; small tags and cut ends)
VH: EVQLVESAAEVRRPGASVKITCKASGYSFSTYGIQWMRQAPGQRPEWLGWIHAGTGGTKYSRKFQGRITITRDTSANTVYLDLNSLTSEDTAVYYCARYGPVGRVKRDDWGQGTTVTVSS
In the case of B2, in test [1], the fluorescence intensity, at 3.125 µM fluorescence-labeled RNase-A was 14 a.u; the fluorescence intensity, at 6.25 µM fluorescence-labeled RNase-A stood at 17.2 a.u; the fluorescence intensity, at 12.5 µM fluorescence-labeled RNase-A was 23.8 a.u; the fluorescence intensity, at 25 µM fluorescence-labeled RNase-A was found to be 37.5 a.u. In addition, in test [1], the fluorescence intensity, at 50 µM fluorescence-labeled RNase-A stood at 47.9 a.u and the fluorescence intensity, at 100 µM fluorescence-labeled RNase-A came to 69.7 a.u. This molecule came in with a Kd in test [2] of 29.4 µM.

B3: Fv variant clone 39, surface-expressed on the outer membrane of E. coli (protein, part only; not given: AIDA-1 display anchor and linker, not shown: another chain or arm of the molecule; large carriers; small tags and cut ends)
VH: EVQLVESAAEVRRPGASVKITCKASGYSFSTYGIQWMRQAPGQRPEWLGWIHAGTGGTKYSRKFQGRITITRDTSANTVYLDLNSLTSEDTAVYYCARDGTAKKSRKDDWGQGTTVTVSS
For B3, in test [1], the fluorescence intensity, at 3.125 µM fluorescence-labeled RNase-A amounted to 15.5 a.u; the fluorescence intensity, at 6.25 µM fluorescence-labeled RNase-A was determined as 19.9 a.u; the fluorescence intensity, at 12.5 µM fluorescence-labeled RNase-A came out at 23.3 a.u; the fluorescence intensity, at 25 µM fluorescence-labeled RNase-A came to 31.8 a.u. Moreover, in test [1], the fluorescence intensity, at 50 µM fluorescence-labeled RNase-A is 37.8 a.u and the fluorescence intensity, at 100 µM fluorescence-labeled RNase-A was 51.9 a.u. In addition, in test [2], the Kd worked out at 28.7 µM.
